The source of these data is patent US20240084003A1 (SIMCERE ZAIMING PHARMACEUTICAL, published 2024).

The term EC50 (read off the curve) denotes the concentration at which the effect is half-maximal. Higher therefore signals weaker potency.

Test [1] has as its target T1, human CD22-ECD-His protein (human, UniProt P20273 20-687).
T1 construct: Made in house in HEK293E; also called hCD22-ECD-His; recombinant human CD22-ECD His protein; not shown: His tag
T1 sequence: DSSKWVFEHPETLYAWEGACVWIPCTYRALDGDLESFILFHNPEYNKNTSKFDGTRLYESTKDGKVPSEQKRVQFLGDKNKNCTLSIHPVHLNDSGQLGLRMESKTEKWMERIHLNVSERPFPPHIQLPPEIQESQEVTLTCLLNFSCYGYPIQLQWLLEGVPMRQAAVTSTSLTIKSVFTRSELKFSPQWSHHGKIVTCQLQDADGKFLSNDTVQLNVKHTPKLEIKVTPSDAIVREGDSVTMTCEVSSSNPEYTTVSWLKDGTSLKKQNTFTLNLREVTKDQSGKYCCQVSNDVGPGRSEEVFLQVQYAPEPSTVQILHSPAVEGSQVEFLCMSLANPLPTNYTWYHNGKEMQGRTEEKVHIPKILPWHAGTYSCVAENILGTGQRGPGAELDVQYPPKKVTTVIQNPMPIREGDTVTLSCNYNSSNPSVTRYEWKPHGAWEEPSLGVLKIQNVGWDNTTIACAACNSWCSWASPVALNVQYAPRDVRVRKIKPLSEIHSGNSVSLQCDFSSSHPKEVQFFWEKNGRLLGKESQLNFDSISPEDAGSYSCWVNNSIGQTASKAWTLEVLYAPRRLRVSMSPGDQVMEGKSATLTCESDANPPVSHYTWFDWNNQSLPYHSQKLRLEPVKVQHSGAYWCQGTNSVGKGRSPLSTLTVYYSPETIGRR
The experiment in a line: ELISA, Ab 0.01 nM. The method, then:
(§1) In order to detect the binding activity of CD22 human-murine chimeric antibodies to CD22 protein, the purified human CD22-ECD-His protein obtained in Example 2 was diluted with PBS to a final concentration of 2 μg/mL, and then added to 96-well ELISA plate at 100 μl/well. The plate was sealed with plastic film and incubated overnight at 4° C., the plate was washed 2 times with PBS the next day, and then a blocking solution [PBS+2% (w/w) BSA] was added for blocking at room temperature for 2 hours. […] After incubation at 37° C. for 2 hours, the plate was washed 3 times with PBS. HRP (horseradish peroxidase)-labeled secondary antibody (purchased from Sigma, catalog number: A0170) was added, and incubated at 37° C. for 2 hours, and the plate was washed 5 times with PBS. TMB substrate was added at 50 μl/well, and incubated at room temperature for 30 minutes, then a stop solution (1.0 N HCl) was added at 50 μl/well.

Test [2] deals with T1, human CD22-ECD-His protein. Description: ELISA, Ab 0.10 nM. As for the experimental part:
as §1
(In general: In an ELISA, binding on a coated surface is turned into a signal by an enzyme label.)

In test [3] the target is T1, human CD22-ECD-His protein. Description: ELISA, Ab 0.001 nM. As for the experimental part:
as §1

Test [4] addresses T1, human CD22-ECD-His protein. Description: ELISA, Ab 10.00 nM. The method, then:
as §1

Test [5] has as its target T1, human CD22-ECD-His protein. The experiment in a line: ELISA, Ab 0.0001 nM. As for the experimental part:
as §1

For test [6], the target named is T1, human CD22-ECD-His protein. Description: ELISA, Ab 100.00 nM. As for the experimental part:
as §1

Test [7] addresses T1, human CD22-ECD-His protein. Description: ELISA, Ab 0.00001 nM. As for the experimental part: as §1
For test [8], the target named is T1, human CD22-ECD-His protein. The experiment in a line: ELISA, human CD22-ECD-His coated. The method, then: as §1
The target in test [9] is T2, murine CD22 protein (ACROBiosystems, SI2-M52Ha) (murine, UniProt P35329 22-708).
T2 construct: extracellular domain; also called murine CD22-ECD; murine CD22-ECD-His
T2 sequence (looked up): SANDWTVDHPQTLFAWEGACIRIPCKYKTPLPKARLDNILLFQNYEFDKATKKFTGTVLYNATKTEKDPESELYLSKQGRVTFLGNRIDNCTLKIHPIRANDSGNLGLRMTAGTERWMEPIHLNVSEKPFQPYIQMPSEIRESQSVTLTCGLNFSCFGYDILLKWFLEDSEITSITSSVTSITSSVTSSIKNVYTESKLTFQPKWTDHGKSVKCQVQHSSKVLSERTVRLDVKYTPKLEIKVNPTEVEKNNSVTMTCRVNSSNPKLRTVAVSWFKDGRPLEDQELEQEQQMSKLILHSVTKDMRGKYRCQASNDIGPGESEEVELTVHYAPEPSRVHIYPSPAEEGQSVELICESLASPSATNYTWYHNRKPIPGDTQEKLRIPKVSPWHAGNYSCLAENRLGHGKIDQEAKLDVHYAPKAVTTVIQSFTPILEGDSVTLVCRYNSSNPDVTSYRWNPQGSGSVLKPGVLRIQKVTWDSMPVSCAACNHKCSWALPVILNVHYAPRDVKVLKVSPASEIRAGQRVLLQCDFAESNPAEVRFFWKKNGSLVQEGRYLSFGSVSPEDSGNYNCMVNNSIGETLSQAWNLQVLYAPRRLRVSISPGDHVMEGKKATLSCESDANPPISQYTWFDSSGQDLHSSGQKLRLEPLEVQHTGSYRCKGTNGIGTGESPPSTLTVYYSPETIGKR
The experiment in a line: ELISA, murine CD22-ECD-His coated. The method, then:
as §1
In order to detect the species cross-binding activity of the chimeric antibodies, an ELISA plate was coated with commercial murine CD22 protein (ACROBiosystems, catalog number: SI2-M52Ha) and monkey CD22 protein (ACROBiosystems, catalog number: SI2-R52Ha), respectively, and the ELISA detection was performed according to the method in Example 5.1.

Another test deals with T3, human CD22 domain1-4-His (human, UniProt P20273 20-425).
T3 construct: also called hCD22 domain1-4-His; not shown: His tag
T3 sequence: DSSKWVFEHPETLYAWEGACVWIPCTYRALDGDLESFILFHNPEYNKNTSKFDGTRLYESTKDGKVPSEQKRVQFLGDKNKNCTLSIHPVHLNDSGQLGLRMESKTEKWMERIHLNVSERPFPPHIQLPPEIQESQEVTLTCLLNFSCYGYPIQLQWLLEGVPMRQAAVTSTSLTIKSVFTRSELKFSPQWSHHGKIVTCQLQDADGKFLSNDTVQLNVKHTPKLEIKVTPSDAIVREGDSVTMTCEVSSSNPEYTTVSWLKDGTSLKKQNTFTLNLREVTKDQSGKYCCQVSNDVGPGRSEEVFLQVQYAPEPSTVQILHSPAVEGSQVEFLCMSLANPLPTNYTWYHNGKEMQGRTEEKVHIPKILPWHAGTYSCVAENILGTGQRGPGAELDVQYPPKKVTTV
Description: ELISA, human CD22 domain1-4-His coated.

A further test deals with T4, human CD22 domain5-7-His (human, UniProt P20273 414-687).
T4 construct: also called hCD22 domain5-7-His; not shown: His tag
T4 sequence: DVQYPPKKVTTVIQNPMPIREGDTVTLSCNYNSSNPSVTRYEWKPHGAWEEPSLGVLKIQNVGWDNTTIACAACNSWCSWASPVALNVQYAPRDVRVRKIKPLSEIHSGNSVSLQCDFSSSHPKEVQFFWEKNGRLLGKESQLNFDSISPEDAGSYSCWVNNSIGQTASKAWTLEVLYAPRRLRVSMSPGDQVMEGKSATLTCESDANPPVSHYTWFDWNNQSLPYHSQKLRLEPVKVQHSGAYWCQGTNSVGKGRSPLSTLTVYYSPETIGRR
Description: ELISA, human CD22 domain5-7-His coated.

B1: F1.7.6 (antibody, human IgG1, kappa, V domains shown)
VH: EIQLQQSGPELVKPGTSVKVSCKASGYDFTRYNMYWVKQSHGKSLEWIGYIDPYNGDTRYNQKFKGKATLTVDKSSSTAYMHLNSLTSEDSAVYYCEAIYYDMEGYALDYWGQGTSVTVSS
VL: DIVMSQSPSSLAVSVGEKVTMSCKSSQSLLYSNNQKNYLAWYQQKPGQSPKKLIYWASTRESGVPDRLTGSGSGTDFTLTISSVTAEDLAVYYCQQFYSYPWTFGGGTKLEIKR
notes: Human-murine chimeric IgG1, kappa
As to B1, the OD450 is 2.2 OD450 in test [1]; 2.51 OD450 in test [2]; 1.19 OD450 in test [3]; 2.46 OD450 in test [4]; 0.34 OD450 in [5]; 2.88 OD450 in test [6]. Besides, the OD450 in test [7] is 0.15 OD450. For the same molecule, the entries for the concentration for a half-maximal effect (EC50 (read off the curve)) (in test [8]; in the test with human CD22 domain1-4-His) were around 0.02 nM and around 0.03 nM, respectively. Besides, the binding result (in [9]; with human CD22 domain5-7-His) was “no binding (tested: 100 nM)” each time.

B2: F2.99.1 (antibody, human IgG1, lambda, V domains shown)
VH: QVTLKESGPGILQPSQTLSLTCSFSGFSLSTFPMGVGWIRQPSGKGLEWLAHIWWDDDEYYNPVLKSRLTISKDTSKKQVYLRIANVDTVDTATYYCTRANWDRWYFDVWGTGTTVTVSS
VL: QLVLTQSSSASFSLGASAKLTCTLSRQHSAYTIEWYQQQPLKPPKYVMEVKKDGSHSTGDGIPDRFSGSSSGADRYLSISNIQPEDEAIYICGVGDTIKEHFVFGGGTKVTVLG
notes: Human-murine chimeric IgG1, lambda
In the case of B2, the OD450 was 1.45 OD450 in test [1]; 2.1 OD450 in test [2]; 0.51 OD450 in test [3]; 2.06 OD450 in [4]; 0.27 OD450 in test [5]; 2.1 OD450 in [6]. The molecule further registered an OD450 in test [7] of 0.08 OD450. The “EC50 (read off the curve)” value in test [8] is around 0.04 nM; in the test with human CD22 domain1-4-His, around 0.05 nM. The binding result (in test [9]; with human CD22 domain5-7-His) was “no binding (tested: 100 nM)” throughout.

B3: F2.42.9 (antibody, human IgG1, lambda, V domains shown)
VH: QVTLKESGPGILQPSQTLSLTCSFSGFSLSTFDRGVGWIRQPSGKGLEWLAHIWWNDKKFYNPVLKSRLTISKDTSKNQVFLTIANVDSADTATYSCARIVWDKYYFDYWGQGIPLTVSS
VL: QLVLTQSSSASFSLGASAKLTCTLSSQHSAYTIEWYQQQPLKPPKFVMDLKKDGSHSTGDGIPARFSGSSSGADRYLTISNIQPEDEAIYICGVGDTIKEQYVFGGGTKVTVLG
notes: as for B2
Consider B3, for which the OD450 in [1] was 1.95 OD450; in test [2], 2.58 OD450; in test [3], 0.68 OD450; in test [4] it was 2.68 OD450; in test [5] it was 0.19 OD450; in test [6] it was 3.14 OD450. This molecule also yielded an OD450 in [7] of 0.09 OD450. The “EC50 (read off the curve)” value (in test [8]; with human CD22 domain1-4-His) was around 0.04 nM in each case. Further, the binding result (in test [9]; in the test with human CD22 domain5-7-His) was “no binding (tested: 100 nM)” throughout.

B4: F1.267.9 (antibody, human IgG1, kappa, V domains shown)
VH: EVQLQQSGPVLVKPGASVKMSCKASGYTFTDFYMNWAKQSHGKSLEWVGVINPYNGGINYNQKFKGKATLTVDKSSSTAYMEFNSLTSEDSAVYYCARRMEYHAMDYWGQGTSVTVSS
VL: DIVLTQSPASLAVSLGQRATISCRASESVDNYGFDFIHWYQQKPGQPPKLLIYRASNLESGIPARFSGSGSRPDFTLTINPVETDDVATYYCQQSIKDPWTFGGGTKLEIKR
notes: as for B1
With B4, the OD450 in test [1] was 1.47 OD450; in [2] it was 2.39 OD450; in test [3], 0.34 OD450; in [4] it was 2.55 OD450; in test [5], 0.1 OD450; in test [6] it was 2.56 OD450. This molecule also had an OD450 in [7] of 0.06 OD450. In addition, the “EC50 (read off the curve)” value was around 0.08 nM in test [8] and around 0.2 nM in the test with human CD22 domain1-4-His. The binding result (in test [9]; with human CD22 domain5-7-His) was “no binding (tested: 100 nM)” in each case.

B5: F2.127.11 (antibody, human IgG1, lambda, V domains shown)
VH: QVTLKESGPGILQPSQTLSLTCSFSGFSLSTFGMGVGWIRQPSGKGLEWLAHIWWDDDKHYNPALKSRLTISKDTSRNQVFLKIANVDTADGATYFCARDNWVSSLDYWGQGTSVIVSS
VL: QPVITQSSSASFSLGASAELTCTLSSQHSTYTIEWYQQQPLKPPKYVMGLKKDGSHSTGDGIPDRFSGSSSGADRYLSISNIQPEDEAIYICGVSDTIKEQFVYVFGGGTKVTVLG
notes: as for B2
With B5, the OD450 in [1] turned out to be 1.34 OD450; in test [2] it was 1.91 OD450; in test [3], 0.5 OD450; in [4], 1.98 OD450; in test [5], 0.26 OD450; in [6], 1.92 OD450. Further, the OD450 in test [7] is 0.21 OD450. In addition, the entries for the “EC50 (read off the curve)” value (in test [8]; in the test with human CD22 domain1-4-His) were around 0.05 nM and around 0.1 nM, respectively. Further, the binding result (in [9]; with human CD22 domain5-7-His) was “no binding (tested: 100 nM)” throughout.
